# Where no end group is shown, it is not given here.
# How the values were obtained:
# Assay type in all cases: biochemical
# ATM kinase = target: T1, ATM kinase (Homo sapiens, UniProt Q13315); experiment: In vitro kinase assay, ATM with GST-peptide / GST-fusion substrates; details: for Relative Phosphorylation (%) ATM: GST-peptide substrate, relative to the p53ser15 site; for phosphorylation of GST-peptide substrate by ATM (in words): GST-conjugated 14 amino acid peptides;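 as to all read-outs here: immunoprecipitated ATM incubated with [γ-32P]ATP at 30 °C for 20 min, substrates resolved by SDS-PAGE and radiolabel incorporation quantified by PhosphorImager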
# T1 construct: The full-length cDNA encoding NH2-terminal, FLAG-tagged wild-type ATM; made in house; host or cells: 293T cells, transient transfection with pcDNA-FLAG-ATMwt, anti-FLAG M2 immunoprecipitate on beads
# ATR = target: T2, ATR (Homo sapiens, UniProt Q13535); experiment: In vitro kinase assay, ATR with GST-peptide / GST-fusion substrates; details: for Relative Phosphorylation (%) ATR: GST-peptide substrate, relative to the p53ser15 site
# T2 construct: made in house; host or cells: 293T cells, transient transfection with pBJF-FRPwt, anti-FLAG M2 immunoprecipitate
# T2 sequence (Q13535 whole entry, the tested form may be a part): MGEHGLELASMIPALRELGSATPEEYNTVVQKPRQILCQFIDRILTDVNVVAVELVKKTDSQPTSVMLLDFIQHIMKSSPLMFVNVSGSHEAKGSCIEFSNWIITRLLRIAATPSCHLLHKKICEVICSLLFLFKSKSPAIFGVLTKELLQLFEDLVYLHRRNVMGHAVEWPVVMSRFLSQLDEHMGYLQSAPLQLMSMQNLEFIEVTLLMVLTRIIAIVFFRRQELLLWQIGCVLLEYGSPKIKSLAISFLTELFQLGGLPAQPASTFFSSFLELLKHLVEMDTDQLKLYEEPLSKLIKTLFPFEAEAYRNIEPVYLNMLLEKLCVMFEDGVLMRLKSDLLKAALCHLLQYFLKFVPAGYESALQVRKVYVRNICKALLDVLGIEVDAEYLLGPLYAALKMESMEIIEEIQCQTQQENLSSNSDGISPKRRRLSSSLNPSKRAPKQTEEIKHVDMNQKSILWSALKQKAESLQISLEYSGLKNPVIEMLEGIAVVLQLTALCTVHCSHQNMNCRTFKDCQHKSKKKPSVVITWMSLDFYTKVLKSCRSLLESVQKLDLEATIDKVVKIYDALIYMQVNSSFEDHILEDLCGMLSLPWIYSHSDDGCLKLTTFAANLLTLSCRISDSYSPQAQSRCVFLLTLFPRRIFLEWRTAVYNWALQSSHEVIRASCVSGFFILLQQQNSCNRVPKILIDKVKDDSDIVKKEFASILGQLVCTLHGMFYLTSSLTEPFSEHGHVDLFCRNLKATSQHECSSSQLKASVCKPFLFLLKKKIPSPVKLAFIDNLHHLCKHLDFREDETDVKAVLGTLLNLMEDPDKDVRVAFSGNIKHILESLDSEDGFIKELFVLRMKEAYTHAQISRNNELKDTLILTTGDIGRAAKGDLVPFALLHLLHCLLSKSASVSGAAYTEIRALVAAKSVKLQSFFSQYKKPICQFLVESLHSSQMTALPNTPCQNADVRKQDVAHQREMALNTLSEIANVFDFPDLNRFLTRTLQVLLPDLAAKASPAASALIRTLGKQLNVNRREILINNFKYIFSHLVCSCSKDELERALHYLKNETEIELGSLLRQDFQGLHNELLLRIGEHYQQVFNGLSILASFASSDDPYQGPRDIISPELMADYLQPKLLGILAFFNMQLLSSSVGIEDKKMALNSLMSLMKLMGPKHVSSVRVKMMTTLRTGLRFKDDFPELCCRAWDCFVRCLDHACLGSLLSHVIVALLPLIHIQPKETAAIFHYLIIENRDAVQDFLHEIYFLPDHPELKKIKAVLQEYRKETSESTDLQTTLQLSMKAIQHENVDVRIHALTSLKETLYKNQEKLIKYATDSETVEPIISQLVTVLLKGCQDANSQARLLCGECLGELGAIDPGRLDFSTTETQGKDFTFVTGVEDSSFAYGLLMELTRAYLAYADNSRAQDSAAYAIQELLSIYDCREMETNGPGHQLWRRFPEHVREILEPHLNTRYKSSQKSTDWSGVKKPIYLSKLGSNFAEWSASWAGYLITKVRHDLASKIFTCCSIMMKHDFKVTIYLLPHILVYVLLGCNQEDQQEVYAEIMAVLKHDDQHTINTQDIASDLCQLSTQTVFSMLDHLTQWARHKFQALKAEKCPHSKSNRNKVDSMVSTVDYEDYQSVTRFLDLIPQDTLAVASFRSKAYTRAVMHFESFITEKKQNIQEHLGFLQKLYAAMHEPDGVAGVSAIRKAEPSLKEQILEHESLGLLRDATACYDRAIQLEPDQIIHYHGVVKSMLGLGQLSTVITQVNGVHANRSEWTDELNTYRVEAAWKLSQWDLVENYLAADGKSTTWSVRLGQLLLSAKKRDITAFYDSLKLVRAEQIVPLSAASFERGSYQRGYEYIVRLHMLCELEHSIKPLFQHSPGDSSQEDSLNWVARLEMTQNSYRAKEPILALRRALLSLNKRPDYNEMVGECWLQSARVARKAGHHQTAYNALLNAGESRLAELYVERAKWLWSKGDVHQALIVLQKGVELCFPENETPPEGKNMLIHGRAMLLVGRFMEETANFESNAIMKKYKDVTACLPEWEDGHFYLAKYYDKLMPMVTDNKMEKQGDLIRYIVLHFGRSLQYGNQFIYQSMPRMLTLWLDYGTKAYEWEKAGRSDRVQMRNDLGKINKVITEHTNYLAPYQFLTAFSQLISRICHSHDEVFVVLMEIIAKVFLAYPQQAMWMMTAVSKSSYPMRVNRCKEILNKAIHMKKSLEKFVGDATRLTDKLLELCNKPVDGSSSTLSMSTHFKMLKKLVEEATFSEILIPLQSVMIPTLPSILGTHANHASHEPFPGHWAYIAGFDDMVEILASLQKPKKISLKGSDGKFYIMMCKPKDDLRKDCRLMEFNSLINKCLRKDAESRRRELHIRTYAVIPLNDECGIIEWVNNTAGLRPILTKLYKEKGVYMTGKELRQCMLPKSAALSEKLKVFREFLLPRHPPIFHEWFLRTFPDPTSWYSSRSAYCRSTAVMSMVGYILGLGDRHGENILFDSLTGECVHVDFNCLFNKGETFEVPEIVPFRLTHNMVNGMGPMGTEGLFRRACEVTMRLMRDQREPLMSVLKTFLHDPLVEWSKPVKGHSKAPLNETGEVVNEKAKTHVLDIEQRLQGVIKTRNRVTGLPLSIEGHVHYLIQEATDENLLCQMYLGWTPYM
# Experimental: (§1) FIGS. 1A, 1B, and 1C. Phosphorylation of GST-p53 mutant peptides (amino acids 9-21) by ATM, ATR, and DNA-PK in vitro. In vitro kinase assays with immunoprecipitated, transfected flag-tagged ATM (A) or ATR (B) or purified DNA-PK (C) were performed with GST-p53 peptides containing the amino acid substitutions indicated. The amount of 32P-labeled GST-peptides was quantitated with a PhosphorImager and was normalized for each of the kinases to the level of phosphorylation of wild-type GST-p53.
# (§2) FIGS. 2A, 2B, and 2C. Phosphorylation of candidate targets of by ATM, ATR and DNA-PK in vitro. GST-peptides containing the putative target sequences were used as substrates for the kinase assay.
# Transfection and Kinase Activity Assays. 293T cells were transiently transfected with 10 μg of either pcDNA-FLAG-ATMwt, pcDNA-FLAG-ATMkd, pBJF-FRPwt or pBJF-FRPkd (Cliby et al., EMBO J., 17:159, 1998) using calcium phosphate and harvested two days later. Cells were lysed through sonication in TGN buffer [50 mM Tris (pH 7.5), 50 mM glycerophosphate, 150 mM NaCl, 10% glycerol, 1% Tween 20, 1 mM NaF, 1 mM NaVO4, 1 mM PMSF, […] Pepstatin A, 5 μg/ml leupeptin, 10 μg/ml Aprotinin and 1 mM DTT] as described (Brunn et al., Science, 277:99-101,1997). After centrifugation at 13,000 ×g, 2 mg of extract were incubated with mouse IgG and protein A/G sepharose beads (Calbiochem). FLAG-tagged proteins were then immunoprecipitated with anti-FLAG M2 monoclonal antibody (Eastman Kodak Company) and protein A/G sepharose beads. Immunoprecipitates were washed twice with TGN buffer, once with 100 mM Tris (pH 7.5) plus 0.5 M LiCl, and twice with kinase buffer [10 mM Hepes (pH 7.5), 50 mM glycerophosphate, 50 mM NaCl, 10 mM MgCl2, 10 mM MnCl2, 5 μM ATP, and 1 mM DTT]. Kinase reactions were initiated by resuspending washed beads in 30 μl of kinase buffer containing 10 μCi [γ-^32P]ATP and 1 μg GSTp531-101 and incubated for 30 minutes at 30° C. Proteins were electrophoretically separated by SDS-polyacrylamide gel electrophoresis, transferred to nitrocellulose, and analyzed on a PhosphorImager. FLAG-tagged proteins and GSTp531-101 were subjected to immunoblotting with either anti-FLAG M2 antibody or monoclonal antibodies directed towards the NH2-terminus of p53 (Ab-2 and Ab-6, Calbiochem) as described (Siliciano et al., Genes Dev., 11:3471, 1997).
# Phosphorylation of Ser^15 of p53 by ATM and ATR/FRP1 in vitro. […] Proteins from each reaction were separated by SDS polyacrylamide gel electrophoresis (7% gel), transferred to nitrocellulose, and analyzed either on a PhosphorImager or by immunoblotting. Amounts of FLAG-tagged ATM or ATR in each kinase reaction were measured by immunoblotting with anti-FLAG M2 (top panel) and amount of [γ^32P]phosphate incorporated into ATM or ATR during the reaction (lower panel). […] An upper immunoreactive band represents phosphorylated GSTp53 fusion protein. The same exposures were used for ATM, ATR/FRP1 and corresponding substrate proteins.
# (§3) Plasmids and GST-fusion protein production. For GST fusion peptide expression vectors, complementary oligonucleotides encoding desired peptides (14 amino acids) were cloned into the BamHI/SmaI site of pGEX-2T (Pharmacia). The constructs were confirmed by restriction enzyme digests and DNA sequencing. To construct the larger GST-p95 (327-391) protein fragment, p95 DNA encoding amino acids 327-391 was amplified by PCR with Pfu polymerase using the following primers: 5′ sense,
# In vitro kinase assays and immunoprecipitation. […] Cleared supernatants were immunoprecipitated with anti-Flag M2 antibody and protein A/G agarose, the beads were washed with TGN buffer followed by TGN buffer plus 0.5 M LiCl, and two washes with kinase buffer [20 mM HEPES (pH 7.5), 50 mM NaCl, 10 mM MgCl2, 1 mM dithiothreitol (DTT) and 10 mM MnCl2]. […] ATP and […] of GST-fusion substrate (GST-p53:1-101), in varying concentration of Mn^2+. […]
# DNA-PK = DNA-PK (Homo sapiens, UniProt P78527); experiment: In vitro kinase assay, purified DNA-PK with GST-peptide / GST-fusion substrates; details: for Relative Phosphorylation (%) DNA-PK: GST-peptide substrate, relative to the p53ser15 site
# Experimental: as §1, §2, §3
# In vitro kinase assays and immunoprecipitation. […] Cleared supernatants were immunoprecipitated with anti-Flag M2 antibody and protein A/G agarose, the beads were washed with TGN buffer followed by TGN buffer plus 0.5 M LiCl, and two washes with kinase buffer [20 mM HEPES (pH 7.5), 50 mM NaCl, 10 mM MgCl2, 1 mM dithiothreitol (DTT) and 10 mM MnCl2]. […] ATP and […] of GST-fusion substrate (GST-p53:1-101), in varying concentration of Mn^2+. The kinase reaction was conducted at 30° C. for 20 min and stopped by the addition of SDS-PAGE loading buffer. Proteins were separated on SDS-polyacrylamide gel electrophoresis (SDS-PAGE) and transferred to nitrocellulose. Radiolabeled proteins were visualized and quantitated on a Phosphorimager (Molecular Dynamics). Use of equivalent amounts of flag-tagged ATM or ATR in the different lanes was confirmed by immunoblotting with anti-flag antibody. In some reactions, either supercoiled DNA (pBluescript II KS, Stratagene) or linearized DNA (pBluescript II KS cut with EcoR1) was added ([…]). For endogenous ATM kinase reactions, endogenous ATM was immunoprecipitated from GM0536 lymphhoblasts with ATM monoclonal antibody (D16.11) in M buffer (PBS, 10% glycerol, 0.2% Tween 20, 0.3% NP-40, 1 mM NaF, 1 mM Na3VO4, 1 mM PMSF, 1x protease inhibitor mixture]. After washing with M buffer and kinase buffer, in vitro kinase reactions were carried out according to procedures described above. The DNA-PK in vitro kinase reaction was performed as previously described (Gottlieb and Jackson, 1993), using 20 ng each of DNA-PKcs or DNA-PK (20 ng DNA-PKcs premixed with 20 ng Ku 70/80).
Relative Phosphorylation (%) ATM (ATM kinase) [%],Relative Phosphorylation (%) ATR (ATR) [%],Relative Phosphorylation (%) DNA-PK (DNA-PK) [%],phosphorylation of GST-peptide substrate by ATM (in words) (ATM kinase),phosphorylation of GST-peptide substrate by DNA-PK (in words) (DNA-PK; GST-conjugated 14 amino acid peptides),effect of addition on activity of endogenous ATM (ATM kinase; endogenous ATM immunoprecipitated under mild conditions),"effect of addition on ATM kinase activity (ATM kinase; transfected flag-tagged ATM, GST-p53 (1-101) substrate)","effect of addition on ATR kinase activity (ATR; transfected flag-tagged ATR, GST-p53 (1-101) substrate)","effect of addition on DNA-PK activity (DNA-PK; purified DNA-PK, GST-p53 (1-101) substrate)",Compound
33,55,7,,,,,,,"ATM S440: GST-peptide PLLMILSQLLPQQR (SEQ ID NO:24), S440 of ATM (also: GST fusion)"
<1,8,<1,,,,,,,"c-ABL: GST-peptide YPGIDLSQVYELLE (SEQ ID NO:23), S446 (not fully specified (N-terminus); also: GST fusion; listed as Homo sapiens)"
12,12,2,,,,,,,"CtIP: GST-peptide DPGADLSQYKMDVT (SEQ ID NO:44), S664 (also: GST fusion)"
5,36,48,not by ATM,phosphorylated by DNA-PKcs,,,,,"DNA LIG-IV: GST-peptide DLKLGVSQQTIFSV (SEQ ID NO:39), S132 (also: GST fusion)"
<1,13,<1,,,,,,,"MRE11 (SQ3): GST-peptide RARALRSQSEESAS (SEQ ID NO:13), S531 (also: GST fusion)"
5,22,2,,,,,,,"β-ADAPTIN: GST-peptide CRAPEVSQHVYQAY (SEQ ID NO:28), S935 (not fully specified (N-terminus); also: GST fusion; listed as Homo sapiens)"
<1,5,<1,,,,,,,"RPA34kD (SQ1): GST-peptide FPAPAPSQAEKKSR (SEQ ID NO:40), S33 (not fully specified (N-terminus); also: GST fusion; listed as Homo sapiens)"
2,38,6,,,,,,,"BRCA1 (SQ1): GST-peptide SASLFSSQCSELED (SEQ ID NO:32), S1298 (also: GST fusion)"
<1,15,<1,,,,,,,"p115-RhoGEF: GST-peptide RLRPLLSQLGGNSV (SEQ ID NO:27), S899 (not fully specified (N-terminus); also: GST fusion; listed as Homo sapiens)"
9,31,132,,,,,,,"p53 S37: GST-peptide VLSPLPSQAMDDLM (SEQ ID NO:8), p53 serine 37 site (not fully specified (N-terminus); also: GST fusion; listed as Homo sapiens)"
111,40,33,,,,,,,"PTS (123F2): GST-peptide WETPDLSQAEIEQK (SEQ ID NO:37), S61 (not fully specified (N-terminus); also: GST fusion)"
8,33,12,,,,,,,"BRCA1 (SQ3): GST-peptide SSEYPISQNPEGLS (SEQ ID NO:34), S1466 (also: GST fusion)"
<1,17,<1,,,,,,,"MRE11 (SQ2): GST-peptide FSVLRFSQKFVDRV (SEQ ID NO:12), S386 (also: GST fusion)"
11,73,20,,,,,,,"CHK1 (SQ2): GST-peptide VQGISFSQPTCPDH (SEQ ID NO:17), S345 (also: GST fusion)"
3,145,15,,,,,,,"DNA 5B: GST-peptide QPEPPVSQSEISEP (SEQ ID NO:38), S72 (also: GST fusion)"
78,66,10,excellent in vitro substrate,,,,,,"4EBP1 (Phas I): GST-peptide EPPMEASQSHLRNS (SEQ ID NO:9), S94 (also: GST fusion)"
<1,150,<1,,,,,,,"PI-3K: GST-peptide DLLMYLSQLVQALK (SEQ ID NO:26), S397 (also: GST fusion)"
,,,,,dependent,dependent,dependent,not altered,[Mn+2] [Mn^2+]
91,1065,25,,,,,,,"RAD17 (SQ2): GST-peptide ASELPASQPQPFSA (SEQ ID NO:19), S656 (not fully specified (N-terminus); also: GST fusion; listed as Homo sapiens)"
3,22,<1,,,,,,,"ATM S2761: GST-peptide YKVVPLSQRSGVLE (SEQ ID NO:25), S2761 of ATM (also: GST fusion)"
